From patent publication US20080280828A1 (NATURAL ENVIRONMENT RESEARCH COUNCIL, published 2008) come the findings set out here.

The target of test [1] is human IgE (Serotech) (human). As to the kind of experiment: SPR (BIAcore 2000), human IgE against guinea pig IgG on the same chip. For orientation: SPR reads the build-up and loss of mass on a sensor chip optically.
The target in test [2] is T1, human IgG Fc fragment (ICN) (human).
T1 construct: domain: Fc fragment; also called human Fc fragment; Fc (human) fragment
As to the kind of experiment: SPR (BIAcore 2000), human Fc immobilised, rIGBPMA 1 mg/ml as analyte.

B1: recombinant IGBPMA (rIGBPMA), N-terminal 26 amino acid truncated, C-terminal 6-His-tag, expressed in (other)
chain: YEVYTGRGVTITVDNTQYEIPADLEKIFQKPKGFSVGSLLVALQEKGIPVNVDEKTGVILGITIDKVRVPFPVSIDLRFKLDNQIYLIPRDLAKLITVLEKKGMPSKILFILYTRYGVVPVRDSNGIVVAISFNGKQFKVKPEPLTAVVILGQKFILPRDTRKMVEFVHSKQSHPEIGFIFLKALKSAGFMLINDDDGAMRSIQKGAQIIKLGFEIRIQVIYGKTTYHVPKDLMRLVKDVRSLGPQEIQSVMKQLKAFDVQVKKEGSKLTILFNSVRYEVDLKSGNVKGHHHHHH
notes: also called soluble rIGBPMA; Clone No. F6
For the molecule B1, the “fold of binding signal against IgG” value in test [1] is 2 fold. Also, in test [2], the “fold of binding over non-specific binding (BSA, F(ab)2)” value worked out at 2 fold.
